From PMC3149346 come the findings set out here.

Holding throughout (assay): AUC
The target in assay [1] is LZ5 K309C/C335A mutant of the Nek2 leucine zipper (UniProt P51955).
Assay [2] concerns the target Nek2 core leucine zipper construct LZ5 (residues 299-343) (UniProt P51955).
Assay [3] deals with Nek2 leucine zipper construct LZ0 (residues 290-360) (UniProt P51955).

In assay [1], “LZ5 K309C/C335A mutant of the Nek2 leucine zipper (from UniProt P51955 299-343) (domain or fragment)” came in with a stoichiometry N of 2.

In the case of “Nek2 core leucine zipper construct LZ5 (residues 299-343) (from UniProt P51955 299-343) (domain or fragment)”, the stoichiometry N in assay [2] was determined as 2.

“Nek2 leucine zipper construct LZ0 (residues 290-360) (from UniProt P51955 290-360) (domain or fragment)” gave a stoichiometry N in assay [3] of 2.
